Measurements: patent US20240209080A1, “FOLR1 BINDING AGENTS, CONJUGATES THEREOF AND METHODS OF USING THE SAME” (PROFOUNDBIO US CO., priority 2021, published 2024)

System: Hela cells
Assay: Flow cytometry binding to Hela cells
Conditions: transfection supernatant, FIG. 1
Description: The binding activity of the antibodies to Hela cells (ATCC® CCL-2, provided by COBIOER) and to RPTEC/TERT1 cells (ATCC® CRL-4031, provided by COBIOER) was tested by flow cytometry using the transfection supernatants. Briefly, target cells were digested with 0.02% EDTA-2Na, centrifuged at 1500 rpm for 3 mins, and resuspended with PBS. After counting, the cells were added to a 1.5 ml centrifuge tube with 1×10^6 cells per tube, centrifuged at 1500 rpm for 5 minutes, and the supernatant was discarded. Then all the operations were carried out on an ice bath. 100 μL of transfection supernatant was added to each 1.5 ml centrifuge tube. Blank cells, blank cells plus secondary antibody, medium and HEK293 supernatant were set up as the controls. The reaction was performed on an ice bath for 1 hour. Then the cells were pelleted and washed twice with PBS. The secondary antibody, goat anti-Human IgG (PE, abcam, ab98596), was diluted (1:200) and added using 100 μL per tube. The reaction was performed on an ice bath for 1 hour in the dark. The cells were pelleted again and washed twice with PBS, resuspended in 300 μL PBS, and FL2 fluorescence readings were measured by cytometry. The results were analyzed by FlowJoTM10 software.
Anti-FOLR1 antibody binding to Hela and RPTEC/TERT1 cells was tested by FACS. The study was carried out as described above. […]

B1: F40: fully human anti-FOLR1 antibody (IgG1), VH SEQ ID NO:9, VL SEQ ID NO:10 (antibody, V domains shown)
VH: EVQLLESGGGVVQPGRSLRLSCAASGFTFSSYAMHWVRQAPGKGLEWVAVISYDGSNKYYADSVKGRFIISRDNSKNTVYLQMNSLRAEDTAVYYCARPTYVFTYTGSSFDYWGQGTQVTVSS
VL: DIQVTQSPSSLSASLGDTVSITCRASRGLTDSVAWYQQKPGQAPKLLIYAASTLQSGVPSRFGGSGSGSYFTLTITSLQPEDVATYYCQNYKSAPWTFGQGTKVEIK
modifications: Synthetic F40 VH amino acid sequence; Synthetic F40 VL amino acid sequence
B1 was tested. Which “Hela cell binding (in words)” value did it give?
Its value is “weakly positive”.
